From patent publication US20230039487A1 come the findings set out here.

One assay addresses hBCMA-mFc (UniProt Q02223). As to the kind of experiment: competition ELISA; isotype control; blocking of APRIL binding. (An ELISA detects its analyte on a solid surface through an enzyme-linked reagent.)
Another assay addresses hBCMA-His (human) (UniProt Q02223). As to the kind of experiment: ELISA; isotype control.

hBCMA-mFc, sequence (Q02223 1-54): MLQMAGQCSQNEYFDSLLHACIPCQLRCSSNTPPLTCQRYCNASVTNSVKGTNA
hBCMA-His (human), sequence (Q02223 1-54): as above

In the assay with hBCMA-mFc, h IgG1 ISO yielded an IC50 of 202 nM. In addition, the EC50 with hBCMA-His (human) came out at 61.4 nM.

The term IC50 denotes the concentration that inhibits the measured activity by half. A lower IC50 goes with higher potency. The term EC50 denotes the concentration giving half of the maximal effect. Read a high EC50 as a less potent agent.
